In the experiment the target is C3b (human) (UniProt P01024). Description: SPR; Biacore T200; about 2488 RU of C3b immobilised by amine coupling on a CM5 chip; CFHR3 injected in duplicate at 10-300 ug/ml; 25 °C, 30 ul/min; 10 mM Hepes-buffered saline, 3 mM ENTA (so in the source), 0.05% surfactant p20; wild type: KD from rate constants, mutant: steady-state affinity fit. (In general: SPR reads the build-up and loss of mass on a sensor chip optically.)

The term Kd denotes the concentration at which binding is half-saturated. In turn, “mutant recombinant CFHR3 Arg142Cys (rs61737525, c.424 C > T) (from UniProt Q02985 19-330) (natural protein)” displayed a Kd of 18 µM.

As a reminder, the koff is a measure of how fast the partners let go of each other. Low values mean slow dissociation, high ones fast dissociation. Usually kon stands for the rate constant with which the complex forms. Low readings indicate slow association, high ones fast association. As to “wild-type recombinant CFHR3 (complement factor H-related protein 3) (from UniProt Q02985 19-330) (natural protein)”, the Kd came out at 0.15 µM, the koff worked out at 0.00128 s⁻¹ and the kon amounted to 8350 M⁻¹ s⁻¹.
